From patent US20230235075A1 (DYNAMICURE BIOTECHNOLOGY, published 2023) come the findings set out here.

Assay [1] deals with T1, Human CD93 recombinant protein (Sino Biological Inc, Catalog #12589-H08H) (human, UniProt Q9NPY3 22-580, biotinylated with EZ-LINK NHS-PEG4 biotin in the Octet assays).
T1 construct: also called hCD93; His-tagged human CD93
T1 sequence (looked up): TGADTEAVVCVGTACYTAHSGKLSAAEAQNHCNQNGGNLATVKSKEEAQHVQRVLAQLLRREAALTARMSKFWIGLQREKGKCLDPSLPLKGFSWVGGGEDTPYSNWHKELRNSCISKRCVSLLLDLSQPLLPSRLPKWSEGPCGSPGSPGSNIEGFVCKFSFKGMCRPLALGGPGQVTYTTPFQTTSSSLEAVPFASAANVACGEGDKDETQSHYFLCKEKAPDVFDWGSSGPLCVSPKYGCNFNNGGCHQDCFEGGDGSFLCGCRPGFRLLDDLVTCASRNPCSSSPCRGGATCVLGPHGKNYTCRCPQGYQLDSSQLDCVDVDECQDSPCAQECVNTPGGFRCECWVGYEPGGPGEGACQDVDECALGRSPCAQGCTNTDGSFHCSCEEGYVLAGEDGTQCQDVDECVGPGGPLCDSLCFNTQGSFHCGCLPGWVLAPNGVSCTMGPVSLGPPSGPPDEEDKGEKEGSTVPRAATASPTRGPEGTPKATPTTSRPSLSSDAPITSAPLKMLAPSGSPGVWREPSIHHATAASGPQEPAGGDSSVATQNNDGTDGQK
The experiment in a line: BLI (Octet QKe), biotinylated CD93 on streptavidin sensors.

Assay [2] concerns the target T2, Human CD93 on the cell surface (human CD93 expressing CHO cells; HUVEC, U937 and KG1a cells) (human, UniProt Q9NPY3 22-652).
T2 construct: whole, on cells; also called hCD93 CHO cells; CHO-hCD93
T2 sequence (looked up): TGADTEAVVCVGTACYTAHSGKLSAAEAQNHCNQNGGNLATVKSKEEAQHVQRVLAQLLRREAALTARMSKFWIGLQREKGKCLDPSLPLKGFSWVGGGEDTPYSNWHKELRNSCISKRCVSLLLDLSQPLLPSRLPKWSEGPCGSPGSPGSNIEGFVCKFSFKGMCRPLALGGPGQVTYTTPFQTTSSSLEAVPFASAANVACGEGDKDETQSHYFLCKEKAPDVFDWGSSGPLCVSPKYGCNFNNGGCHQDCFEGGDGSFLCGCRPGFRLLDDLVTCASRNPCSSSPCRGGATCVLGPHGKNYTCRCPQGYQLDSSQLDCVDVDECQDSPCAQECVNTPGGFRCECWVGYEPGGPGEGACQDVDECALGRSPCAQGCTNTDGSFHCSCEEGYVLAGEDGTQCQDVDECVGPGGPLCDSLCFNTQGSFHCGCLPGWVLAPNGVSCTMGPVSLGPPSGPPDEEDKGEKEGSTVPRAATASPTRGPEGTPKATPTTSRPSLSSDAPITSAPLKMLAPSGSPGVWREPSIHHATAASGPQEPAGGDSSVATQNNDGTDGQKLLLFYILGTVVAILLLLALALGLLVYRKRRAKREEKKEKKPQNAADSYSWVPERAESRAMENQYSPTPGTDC
The experiment in a line: summary table, column 'Binding' (assay not given).

The target of assay [3] is T2, Human CD93 on the cell surface (human …). The experiment in a line: flow cytometry, primary HUVEC cells, with and without human serum. How it is done:
Recombinant parental anti-CD93 antibodies were evaluated for their ability to bind to HUVEC cells in the presence or absence of human serum. The 16E4, 7F3, 16A1, and 17B10 sequences obtained from the hybridoma cells were expressed recombinantly with a human CH1 domain and mouse IgG1 CH2 and CH3 Fc domains. Antibodies were purified using Protein G Sepharose. The resulting antibodies were tested for its binding capacity to a variety of cells that express CD93. […] Cells were quenched with media then counted. Cells were resuspended in FACS buffer (ice cold PBS with 0.5% BSA) and human serum was added to 20% (10% final volume) and put on ice for approximately 20 minutes. 5×10⁴ cells were seeded per well in 100 μL media and incubated with serial diluted anti-CD93 antibodies in 100 μL on ice for 2 hours. Cells were then washed by spinning cells at 1200 rpm for 5 min. Media was discarded and cells were resuspended in 200 μL ice cold FACS buffer. The wash step was repeated and cells were resuspended in 100 μL of secondary antibody, AlexaFluor647 conjugated anti-human IgG or anti-mouse IgG antibodies (Jackson ImmunoResearch), diluted 1:500 in FACS buffer. Plates were blocked from light and incubated 1 hour at 4° C. […] Samples were stored at 4° C. covered in foil, then were acquired in NovoCyte Flow Cytometer and analyzed by NovoExpress software.

B1: 10B1 (antibody, V domains shown)
VH: QVQLKQSGPGLVQPSQSLSITCTVSDFSLSSFGVNWVRQPPGKGLEWLGVIWSGGSTDYNVAFISRLSISKDNSKSQVFFKMNNLQADDTAIYYCARNWRYDGYFYAMDYWGQGTSVTVSS
VL: DIVMTQSQKFMSTSTGDRVSVTCKASQNVGTNVAWYQQKPGQSPKALIYSASYRFIGVPDRFTGSGSGTDFTLTITNVQSEDLAEYFCQQYNRNPITFGSGTKLEIK
notes: Mouse hybridoma monoclonal antibody; also called 10B1 mAb
With B1, the binding result in assay [1] and in assay [2] was “binds” throughout.

B2: Recombinant parental 17B10 (human CH1 domain, mouse IgG1 CH2 and CH3 Fc domains) (antibody, V domains shown)
VH: QVQLQQSGPELVKPGASVKISCKASGYAFSSYWLNWVKQRPGKGLEWFGRIYPGDGDTDYNGKFKGKATLTADKSSSTAYMQLRSLTSEDSAVYFCVRGDGYWAMDYWGQGTSVTVSS
VL: DIVMTQAAFSNPVTLGTSASISCRFSKSLLHSNGITYLYWYLQKPGQSPQLLIYQMSNLASGVPDRFSSSGSGTDFTLRISRVEAEDVGVYYCAQNLELPWTFGGGTKLEIK
As to B2, the binding result in assay [3] is listed as “binds”.
